From patent US20130184211A1 (NEW YORK UNIVERSITY, published 2013)

Experiments:
[1] = target: T1, 1:1 binary complex of the ectodomains of FGFR1c and Klotho (human; murine, UniProt O35082 35-982); experiment: SPR competition; competitor FGF23^28-251 immobilized, fixed FGFR1c-Klotho complex
T1 construct: range 35-982; also called FGFR1c-Klotho complex; binary FGFR1c-Klotho complex; not shown: C-terminal FLAG tag
T1 sequence 1: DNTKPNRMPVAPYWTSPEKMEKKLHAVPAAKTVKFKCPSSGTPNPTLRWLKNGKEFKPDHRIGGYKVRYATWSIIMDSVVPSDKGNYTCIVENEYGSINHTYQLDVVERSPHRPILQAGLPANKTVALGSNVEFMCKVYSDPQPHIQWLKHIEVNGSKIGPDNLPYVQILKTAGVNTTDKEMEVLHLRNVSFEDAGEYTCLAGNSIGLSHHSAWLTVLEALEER
T1 sequence 2: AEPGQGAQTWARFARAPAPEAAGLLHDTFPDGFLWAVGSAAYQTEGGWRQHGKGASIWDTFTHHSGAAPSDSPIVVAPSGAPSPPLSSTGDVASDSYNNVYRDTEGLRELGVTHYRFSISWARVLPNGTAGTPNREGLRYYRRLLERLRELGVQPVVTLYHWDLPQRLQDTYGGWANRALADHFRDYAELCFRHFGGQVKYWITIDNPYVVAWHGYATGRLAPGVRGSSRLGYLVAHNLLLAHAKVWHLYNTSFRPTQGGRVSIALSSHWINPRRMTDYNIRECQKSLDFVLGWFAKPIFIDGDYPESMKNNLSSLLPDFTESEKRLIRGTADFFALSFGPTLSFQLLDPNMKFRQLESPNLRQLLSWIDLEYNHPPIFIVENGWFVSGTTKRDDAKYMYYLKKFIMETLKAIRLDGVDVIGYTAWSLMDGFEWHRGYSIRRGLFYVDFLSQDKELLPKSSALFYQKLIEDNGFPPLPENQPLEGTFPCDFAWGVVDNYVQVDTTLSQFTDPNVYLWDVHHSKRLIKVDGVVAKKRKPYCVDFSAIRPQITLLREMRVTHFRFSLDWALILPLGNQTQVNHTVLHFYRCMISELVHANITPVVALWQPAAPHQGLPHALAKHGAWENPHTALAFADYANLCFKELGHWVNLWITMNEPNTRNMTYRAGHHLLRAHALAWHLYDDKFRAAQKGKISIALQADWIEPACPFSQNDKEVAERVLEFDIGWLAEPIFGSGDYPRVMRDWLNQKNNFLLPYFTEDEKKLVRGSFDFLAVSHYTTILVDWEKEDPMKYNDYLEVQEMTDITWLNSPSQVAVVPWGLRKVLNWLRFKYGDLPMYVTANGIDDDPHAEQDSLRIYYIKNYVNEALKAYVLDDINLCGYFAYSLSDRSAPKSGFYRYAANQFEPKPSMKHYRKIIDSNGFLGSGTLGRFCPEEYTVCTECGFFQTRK
Procedure: Increasing concentrations of FGF23²⁸⁻²⁵¹ (0-50 nM) were mixed with a fixed concentration of 1:1 complex of the ectodomains of FGFR1c and Klotho (15 nM and 20 nM, respectively) in HBS-EP buffer, and the mixtures were passed over the FGF23 chip. In the other—reverse—assay, FGF23¹⁸⁰⁻²⁵¹ was immobilized on a chip (˜48.4 fmole/mm² of flow channel). Increasing concentrations of FGF23²⁸⁻²⁵¹ (0-50 nM) were mixed with a fixed concentration of 1:1 complex of the ectodomains of FGFR1c and Klotho (20 nM) in HBS-EP buffer, and the mixtures were passed over the chip. As a control, competition of FGF23 C-terminal tail peptide in solution with immobilized FGF23 C-terminal tail peptide for binding to the binary FGFR1c-Klotho complex was studied. Increasing concentrations of FGF23¹⁸⁰⁻²⁵¹ (0-400 nM) were mixed with a fixed concentration of 1:1 complex of the ectodomains of FGFR1c and Klotho (20 nM) in HBS-EP buffer, and the mixtures were passed over the FGF23¹⁸⁰⁻²⁵¹ chip.
To fully nail down that the C-terminal tail of FGF23 mediates FGF23 binding to the binary FGFR1c-Klotho complex, a fixed concentration of FGFR1c-Klotho was mixed with increasing concentrations of FGF23¹⁸⁰⁻²⁵¹, and the mixtures were passed over the FGF23 chip. Mixtures of FGF23²⁸⁻²⁵¹ with FGFR1c-Klotho were used as a control. […] Similar results were obtained using the “reverse” SPR assay format, where FGF23¹⁸⁰⁻²⁵¹ was immobilized on a chip and mixtures of a fixed concentration of FGFR1c-Klotho complex with increasing concentrations of FGF23²⁸⁻²⁵¹ were passed over the chip (FIG. 3E). Mixtures of FGF23¹⁸⁰⁻²⁵¹ with FGFR1c-Klotho were used as a control (FIG. 3F). To verify the specificity of the interaction between the FGF23 C-terminal tail and the FGFR1c-Klotho complex, the C-terminal tail peptide of FGF21 and FGFR1c-Klotho were mixed at molar ratios of 6:1 and 10:1, and the mixtures were injected over a FGF23 chip.

[2] = target: T1, 1:1 binary complex of the ectodomains …; experiment: SPR competition dose-response: FGF23^28-251 mixed with a fixed concentration of FGFR1c-Klotho, immobilized FGF23^28-251 as competitor; averaged data of two to three experiments
Source text: For each protein injection over a Klotho chip, the nonspecific responses from the β-glucuronidase control flow channel were subtracted from the responses recorded for the Klotho flow channel. Similarly, for each protein injection over a FGF chip, the nonspecific responses from the FHF1B control flow channel were subtracted from the responses recorded for the FGF flow channel. Each set of experiments was repeated at least three times, and for each experiment, at least two protein injections were repeated two to five times to monitor chip performance and to verify reproducibility of the binding responses.
To examine whether the C-terminal tail of FGF23 can compete with full-length FGF23 for binding to the binary FGFR1c-Klotho complex, two assay formats were employed. In one assay, FGF23²⁸⁻²⁵¹ was immobilized on a chip (˜16-53 fmole/mm² of flow channel). Increasing concentrations of FGF23¹⁸⁰⁻²⁵¹ (0-400 nM) were mixed with a fixed concentration of 1:1 complex of the ectodomains of FGFR1c and Klotho (10 nM, 15 nM and 20 nM, respectively) in HBS-EP buffer, and the mixtures were passed over the chip. As a control, competition of FGF23 in solution with immobilized FGF23 for binding to the binary FGFR1c-Klotho complex was studied. […]

[3] = target: T2, ectodomain of murine Klotho (A35 to K982) with C-terminal FLAG tag (murine, UniProt O35082 35-982); experiment: SPR; Klotho ectodomain immobilized, increasing FGFR1c ectodomain injected; fitted saturation binding curve
T2 construct: range 35-982; Purified from culture media of HEK293 cells; also called Klotho ectodomain; not shown: C-terminal FLAG tag
T2 sequence (looked up): T1 sequence 2
Procedure: Proteins were immobilized by amine coupling on flow channels of research grade CMS chips (Biacore AB). Proteins were injected over a CMS chip at a flow rate of 50 μl min⁻¹, and at the end of each protein injection (180 s), HBS-EP buffer (50 μl min⁻¹) was flowed over the chip to monitor dissociation for 180 s. The chip surface was then regenerated by injecting 50 μl of 2.0 M NaCl in 10 mM sodium acetate, pH 4.5. […] For each protein injection over a Klotho chip, the nonspecific responses from the β-glucuronidase control flow channel were subtracted from the responses recorded for the Klotho flow channel. Similarly, for each protein injection over a FGF chip, the nonspecific responses from the FHF1B control flow channel were subtracted from the responses recorded for the FGF flow channel. Each set of experiments was repeated at least three times, and for each experiment, at least two protein injections were repeated two to five times to monitor chip performance and to verify reproducibility of the binding responses.
The size-exclusion data showing that Klotho and FGFR1c ectodomains form a stable binary complex (FIG. 1B) indicate that Klotho must harbor a high affinity binding site for FGFR1c. To further confirm this, surface plasmon resonance (SPR) spectroscopy was used to determine the dissociation constant of the FGFR1c-Klotho interaction. […]

B1: human FGF23 (A28 to I251), FGF23^28-251, with R176Q and R179Q (ligand)
chain: ASPLLGSSWGGLIHLYTATARNSYHLQIHKNGHVDGAPHQTIYSALMIRSEDAGFVVITGVMSRRYLCMDFRGNIFGSHYFDPENCRFQHQTLENGYDVYHSPQYHFLVSLGRAKRAFLPGMNPPPYSQFLSRRNEIPLIHFNTPIPRQHTQSAEDDSERDPLNVLKPRARMTPAPASCSQELPSAEDNSPMASDPLGVVRGGRVNTHAGGTGPEGCRPFAKFI
notes: also called full-length FGF23
molar amount relative to FGFR1c-Klotho complex at 50% inhibition [1]: < 1 fold molar amount
IC50 (read off the curve) [2]: ~20 nM

B2: ligand-binding domain of human FGFR1c (D142 to R365) (receptor)
chain: T1 sequence 1
notes: Expressed in E. coli; also called FGFR1c ectodomain
Kd [3]: 72 nM
